Key:
HeLa Kyoto [1] = experiment: solubility change mitosis vs G1/S (difference of NP-40 vs SDS log2 ratios) (log2 ratio difference); higher = more soluble in mitosis
HeLa Kyoto [2] = experiment: melting temperature (median over replicates), in situ; higher = more thermally stable
HeLa Kyoto [3] = experiment: solubility in G1/S (NP-40 vs SDS abundance) (log2 ratio); higher = more soluble; details: cell cycle stage: G1/S
HeLa Kyoto [4] = experiment: thermal stability score vs G1/S (z-score of summed log2 fold changes over temperatures); higher = more thermally stable than in G1/S
[5] = cell cycle stage: early G1 (4.5 h after nocodazole release)
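Throughout, for melting temperature (median over replicates), in situ: HeLa Kyoto cells synchronized by double thymidine or nocodazole block, proteins quantified by TMT10plex mass spectrometry, three independent biological replicates.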
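Throughout, for solubility change mitosis vs G1/S (difference of NP-40 vs SDS log2 ratios): synchronized HeLa Kyoto cells (double thymidine block for G1/S, nocodazole release for mitosis), protein amounts in NP-40 versus SDS lysates quantified by mass spectrometry, three biological replicates.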
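Throughout, for solubility in G1/S (NP-40 vs SDS abundance): HeLa Kyoto cells arrested at G1/S by double thymidine block, proteins quantified by TMT10plex mass spectrometry in mild NP-40 versus SDS extracts, three biological replicates.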
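Throughout, for thermal stability score vs G1/S (z-score of summed log2 fold changes over temperatures): synchronized HeLa Kyoto cells, proteins quantified by TMT10plex mass spectrometry, three biological replicates, mitosis taken 0.5 h after nocodazole release, G1/S directly after double thymidine block.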

MCTP2, sequence (chain, as listed by the source): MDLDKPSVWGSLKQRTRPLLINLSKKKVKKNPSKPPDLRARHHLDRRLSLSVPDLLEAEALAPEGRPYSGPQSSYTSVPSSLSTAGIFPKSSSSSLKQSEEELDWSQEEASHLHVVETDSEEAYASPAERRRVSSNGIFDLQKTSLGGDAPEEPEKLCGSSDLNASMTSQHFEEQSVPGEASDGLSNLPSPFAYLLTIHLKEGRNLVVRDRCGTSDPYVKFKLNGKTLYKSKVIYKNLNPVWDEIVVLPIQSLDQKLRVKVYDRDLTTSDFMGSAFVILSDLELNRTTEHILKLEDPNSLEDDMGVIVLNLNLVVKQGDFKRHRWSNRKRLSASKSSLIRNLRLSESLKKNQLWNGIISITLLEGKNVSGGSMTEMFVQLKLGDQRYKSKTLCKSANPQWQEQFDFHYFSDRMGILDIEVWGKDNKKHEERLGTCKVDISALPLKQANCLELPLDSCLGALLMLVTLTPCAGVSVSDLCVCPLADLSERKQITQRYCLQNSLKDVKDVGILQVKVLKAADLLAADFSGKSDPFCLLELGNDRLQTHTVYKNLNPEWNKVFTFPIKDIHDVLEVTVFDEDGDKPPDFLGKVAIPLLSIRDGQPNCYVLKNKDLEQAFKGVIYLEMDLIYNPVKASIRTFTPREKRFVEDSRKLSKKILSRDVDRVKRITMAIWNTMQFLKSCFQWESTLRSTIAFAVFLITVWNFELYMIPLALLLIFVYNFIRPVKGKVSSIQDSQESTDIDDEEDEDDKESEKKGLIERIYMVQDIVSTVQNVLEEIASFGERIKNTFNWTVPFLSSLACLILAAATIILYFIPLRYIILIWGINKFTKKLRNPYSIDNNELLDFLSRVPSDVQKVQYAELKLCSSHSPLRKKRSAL

Substance	solubility change mitosis (log2) (HeLa Kyoto [1])	melting temperature (HeLa Kyoto [2]; cell cycle stage: G1/S)	melting temperature (HeLa Kyoto [2]; cell cycle stage: mitosis)	solubility in G1/S (log2) (HeLa Kyoto [3])	thermal stability score (HeLa Kyoto [4]; [5])	thermal stability score (HeLa Kyoto [4]; cell cycle stage: mitosis)
MAYPGHPGAGGGYYPGGYGGAPGGPAFPGQTQDPLYGYFAAVAGQDGQIDADELQRCLTQSGIAGGYKPFNLETCRLMVSMLDRDMSGTMGFNEFKELWAVLNGWRQHFISFDTDRSGTVDPQELQKALTTMGFRLSPQAVNSIAKRYSTNGKITFDDYIACCVKLRALTDSFRRRDTAQQGVVNFPYDDFIQCVMSV [SRI]	0.318	52.8 °C	52.2 °C	0.028	-2.31	-2.35
MCAAQMPPLAHIFRGTFVHSTWTCPMEVLRDHLLGVSDSGKIVFLEEASQQEKLAKEWCFKPCEIRELSHHEFFMPGLVDTHIHASQYSFAGSSIDLPLLEWLTKYTFPAEHRFQNIDFAEEVYTRVVRRTLKNGTTTACYFATIHTDSSLLLADITDKFGQRAFVGKVCMDLNDTFPEYKETTEESIKETERFVSEMLQKNYSRVKPIVTPRFSLSCSETLMGELGNIAKTRDLHIQSHISENRDEVEAVKNLYPSYKNYTSVYDKNNLLTNKTVMAHGCYLSAEELNVFHERGASIAHCPNSNLSLSSGFLNVLEVLKHEVKIGLGTDVAGGYSYSMLDAIRRAVMVSNILLINKVNEKSLTLKEVFRLATLGGSQALGLDGEIGNFEVGKEFDAILINPKASDSPIDLFYGDFFGDISEAVIQKFLYLGDDRNIEEVYVGGKQVVPFSSSV [GDA]	-0.0926	61.9 °C	63.7 °C	0.0143	-1.49	-2.29
MCDLRRPAAGGMMDLAYVCEWEKWSKSTHCPSVPLACAWSCRNLIAFTMDLRSDDQDLTRMIHILDTEHPWDLHSIPSEHHEAITCLEWDQSGSRLLSADADGQIKCWSMADHLANSWESSVGSLVEGDPIVALSWLHNGVKLALHVEKSGASSFGEKFSRVKFSPSLTLFGGKPMEGWIAVTVSGLVTVSLLKPSGQVLTSTESLCRLRGRVALADIAFTGGGNIVVATADGSSASPVQFYKVCVSVVSEKCRIDTEILPSLFMRCTTDLNRKDKFPAITHLKFLARDMSEQVLLCASSQTSSIVECWSLRKEGLPVNNIFQQISPVVGDKQPTILKWRILSATNDLDRVSAVALPKLPISLTNTDLKVASDTQFYPGLGLALAFHDGSVHIVHRLSLQTMAVFYSSAAPRPVDEPAMKRPRTAGPAVHLKAMQLSWTSLALVGIDSHGKLSVLRLSPSMGHPLEVGLALRHLLFLLEYCMVTGYDWWDILLHVQPSMVQSLVEKLHEEYTRQTAALQQVLSTRILAMKASLCKLSPCTVTRVCDYHTKLFLIAISSTLKSLLRPHFLNTPDKSPGDRLTEICTKITDVDIDKVMINLKTEEFVLDMNTLQALQQLLQWVGDFVLYLLASLPNQGSLLRPGHSFLRDGTSLGMLRELMVVIRIWGLLKPSCLPVYTATSDTQDSMSLLFRLLTKLWICCRDEGPASEPDEALVDECCLLPSQLLIPSLDWLPASDGLVSRLQPKQPLRLQFGRAPTLPGSAATLQLDGLARAPGQPKIDHLRRLHLGACPTEECKACTRCGCVTMLKSPNRTTAVKQWEQRWIKNCLAVEGRGPDACVTSRASEEAPAFVQLGPQSTHHSPRTPRSLDHLHPEDRP [MED16]	-0.185	52.2 °C	52 °C	-0.121	0.307	0.64
MCGNNMSTPLPAIVPAARKATAAVIFLHGLGDTGHGWAEAFAGIRSSHIKYICPHAPVRPVTLNMNVAMPSWFDIIGLSPDSQEDESGIKQAAENIKALIDQEVKNGIPSNRIILGGFSQGGALSLYTALTTQQKLAGVTALSCWLPLRASFPQGPIGGANRDISILQCHGDCDPLVPLMFGSLTVEKLKTLVNPANVTFKTYEGMMHSSCQQEMMDVKQFIDKLLPPID [LYPLA1]	0.23	54.6 °C	56.2 °C	0.619	0.0704	-0.796
MCM3AP	0.655	48.7 °C	49.5 °C	-0.867	-0.00305	-0.291
MCSLGLFPPPPPRGQVTLYEHNNELVTGSSYESPPPDFRGQWINLPVLQLTKDPLKTPGRLDHGTRTAFIHHREQVWKRCINIWRDVGLFGVLNEIANSEEEVFEWVKTASGWALALCRWASSLHGSLFPHLSLRSEDLIAEFAQVTNWSSCCLRVFAWHPHTNKFAVALLDDSVRVYNASSTIVPSLKHRLQRNVASLAWKPLSASVLAVACQSCILIWTLDPTSLSTRPSSGCAQVLSHPGHTPVTSLAWAPSGGRLLSASPVDAAIRVWDVSTETCVPLPWFRGGGVTNLLWSPDGSKILATTPSAVFRVWEAQMWTCERWPTLSGRCQTGCWSPDGSRLLFTVLGEPLIYSLSFPERCGEGKGCVGGAKSATIVADLSETTIQTPDGEERLGGEAHSMVWDPSGERLAVLMKGKPRVQDGKPVILLFRTRNSPVFELLPCGIIQGEPGAQPQLITFHPSFNKGALLSVGWSTGRIAHIPLYFVNAQFPRFSPVLGRAQEPPAGGGGSIHDLPLFTETSPTSAPWDPLPGPPPVLPHSPHSHL [AAAS]	0.0315	53.6 °C	51 °C	-0.296	-4.87	-7.02
MCTP2	-0.136	50.2 °C	50.1 °C	-0.274	0.55	0.479
MDADDSRAPKGSLRKFLEHLSGAGKAIGVLTSGGDAQGMNAAVRAVVRMGIYVGAKVYFIYEGYQGMVDGGSNIAEADWESVSSILQVGGTIIGSARCQAFRTREGRLKAACNLLQRGITNLCVIGGDGSLTGANLFRKEWSGLLEELARNGQIDKEAVQKYAYLNVVGMVGSIDNDFCGTDMTIGTDSALHRIIEVVDAIMTTAQSHQRTFVLEVMGRHCGYLALVSALACGADWVFLPESPPEEGWEEQMCVKLSENRARKKRLNIIIVAEGAIDTQNKPITSEKIKELVVTQLGYDTRVTILGHVQRGGTPSAFDRILASRMGVEAVIALLEATPDTPACVVSLNGNHAVRLPLMECVQMTQDVQKAMDERRFQDAVRLRGRSFAGNLNTYKRLAIKLPDDQIPKTNCNVAVINVGAPAAGMNAAVRSAVRVGIADGHRMLAIYDGFDGFAKGQIKEIGWTDVGGWTGQGGSILGTKRVLPGKYLEEIATQMRTHSINALLIIGGFEAYLGLLELSAAREKHEEFCVPMVMVPATVSNNVPGSDFSIGADTALNTITDTCDRIKQSASGTKRRVFIIETMGGYCGYLANMGGLAAGADAAYIFEEPFDIRDLQSNVEHLTEKMKTTIQRGLVLRNESCSENYTTDFIYQLYSEEGKGVFDCRKNVLGHMQQGGAPSPFDRNFGTKISARAMEWITAKLKEARGRGKKFTTDDSICVLGISKRNVIFQPVAELKKQTDFEHRIPKEQWWLKLRPLMKILAKYKASYDVSDSGQLEHVQPWSV [PFKP]	-0.138	57.4 °C	58.3 °C	-0.0125	-0.744	-1.49
MDAGFFRGTSAEQDNRFSNKQKKLLKQLKFAECLEKKVDMSKVNLEVIKPWITKRVTEILGFEDDVVIEFIFNQLEVKNPDSKMMQINLTGFLNGKNAREFMGELWPLLLSAQENIAGIPSAFLELKKEEIKQRQIEQEKLASMKKQDEDKDKRDKEEKESSREKRERSRSPRRRKSRSPSPRRRSSPVRRERKRSHSRSPRHRTKSRSPSPAPEKKEKTPELPEPSVKVKEPSVQEATSTSDILKVPKPEPIPEPKEPSPEKNSKKEKEKEKTRPRSRSRSKSRSRTRSRSPSHTRPRRRHRSRSRSYSPRRRPSPRRRPSPRRRTPPRRMPPPPRHRRSRSPVRRRRRSSASLSGSSSSSSSSRSRSPPKKPPKRTSSPPRKTRRLSPSASPPRRRHRPSPPATPPPKTRHSPTPQQSNRTRKSRVSVSPGRTSGKVTKHKGTEKRESPSPAPKPRKVELSESEEDKGGKMAAADSVQQRRQYRRQNQQSSSDSGSSSSSEDERPKRSHVKNGEVGRRRRHSPSRSASPSPRKRQKETSPRGRRRRSPSPPPTRRRRSPSPAPPPRRRRTPTPPPRRRTPSPPPRRRSPSPRRYSPPIQRRYSPSPPPKRRTASPPPPPKRRASPSPPPKRRVSHSPPPKQRSSPVTKRRSPSLSSKHRKGSSPSRSTREARSPQPNKRHSPSPRPRAPQTSSSPPPVRRGASSSPQRRQSPSPSTRPIRRVSRTPEPKKIKKAASPSPQSVRRVSSSRSVSGSPEPAAKKPPAPPSPVQSQSPSTNWSPAVPVKKAKSPTPSPSPPRNSDQEGGGKKKKKKKDKKHKKDKKHKKHKKHKKEKAVAAAAAAAVTPAAIAAATTTLAQEEPVAAPEPKKETESEAEDNLDDLEKHLREKALRSMRKAQVSPQS [SRRM1]	1.02	51.3 °C	50 °C	-1.06	-6.13	-6.36
MDAKARNCLLQHREALEKDIKTSYIMDHMISDGFLTISEEEKVRNEPTQQQRAAMLIKMILKKDNDSYVSFYNALLHEGYKDLAALLHDGIPVVSSSSGKDSVSGITSYVRTVLCEGGVPQRPVVFVTRKKLVNAIQQKLSKLKGEPGWVTIHGMAGCGKSVLAAEAVRDHSLLEGCFPGGVHWVSVGKQDKSGLLMKLQNLCTRLDQDESFSQRLPLNIEEAKDRLRILMLRKHPRSLLILDDVWDSWVLKAFDSQCQILLTTRDKSVTDSVMGPKYVVPVESSLGKEKGLEILSLFVNMKKADLPEQAHSIIKECKGSPLVVSLIGALLRDFPNRWEYYLKQLQNKQFKRIRKSSSYDYEALDEAMSISVEMLREDIKDYYTDLSILQKDVKVPTKVLCILWDMETEEVEDILQEFVNKSLLFCDRNGKSFRYYLHDLQVDFLTEKNCSQLQDLHKKIITQFQRYHQPHTLSPDQEDCMYWYNFLAYHMASAKMHKELCALMFSLDWIKAKTELVGPAHLIHEFVEYRHILDEKDCAVSENFQEFLSLNGHLLGRQPFPNIVQLGLCEPETSEVYQQAKLQAKQEVDNGMLYLEWINKKNITNLSRLVVRPHTDAVYHACFSEDGQRIASCGADKTLQVFKAETGEKLLEIKAHEDEVLCCAFSTDDRFIATCSVDKKVKIWNSMTGELVHTYDEHSEQVNCCHFTNSSHHLLLATGSSDCFLKLWDLNQKECRNTMFGHTNSVNHCRFSPDDKLLASCSADGTLKLWDATSANERKSINVKQFFLNLEDPQEDMEVIVKCCSWSADGARIMVAAKNKIFLFDIHTSGLLGEIHTGHHSTIQYCDFSPQNHLAVVALSQYCVELWNTDSRSKVADCRGHLSWVHGVMFSPDGSSFLTSSDDQTIRLWETKKVCKNSAVMLKQEVDVVFQENEVMVLAVDHIRRLQLINGRTGQIDYLTEAQVSCCCLSPHLQYIAFGDENGAIEILELVNNRIFQSRFQHKKTVWHIQFTADEKTLISSSDDAEIQVWNWQLDKCIFLRGHQETVKDFRLLKNSRLLSWSFDGTVKVWNIITGNKEKDFVCHQGTVLSCDISHDATKFSSTSADKTAKIWSFDLLLPLHELRGHNGCVRCSAFSVDSTLLATGDDNGEIRIWNVSNGELLHLCAPLSEEGAATHGGWVTDLCFSPDGKMLISAGGYIKWWNVVTGESSQTFYTNGTNLKKIHVSPDFKTYVTVDNLGILYILQTLE [APAF1]	-0.0529	51.2 °C	49.7 °C	-0.414	-0.116	0.0498
MDAPRQVVNFGPGPAKLPHSVLLEIQKELLDYKGVGISVLEMSHRSSDFAKIINNTENLVRELLAVPDNYKVIFLQGGGCGQFSAVPLNLIGLKAGRCADYVVTGAWSAKAAEEAKKFGTINIVHPKLGSYTKIPDPSTWNLNPDASYVYYCANETVHGVEFDFIPDVKGAVLVCDMSSNFLSKPVDVSKFGVIFAGAQKNVGSAGVTVVIVRDDLLGFALRECPSVLEYKVQAGNSSLYNTPPCFSIYVMGLVLEWIKNNGGAAAMEKLSSIKSQTIYEIIDNSQGFYVCPVEPQNRSKMNIPFRIGNAKGDDALEKRFLDKALELNMLSLKGHRSVGGIRASLYNAVTIEDVQKLAAFMKKFLEMHQL [PSAT1]	-0.136	55.6 °C	55.6 °C	0.15	-0.482	-0.769
